Laboratory results as given in patent publication US20220332804A1 (CSL INNOVATION, published 2022).

Key:
Test in all cases: SPR, mAb captured, C2 mutant analyte;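 note: Anti-C2 mAbs captured on goat anti-human IgG Biacore CM5 chips, alanine or serine C2 surface mutants flowed over at 37 °C, double-referenced sensorgrams fitted to a 1:1 binding model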
human C2 T442A = target: T1, human C2 T442A (human, UniProt P06681 21-752)
T1 sequence: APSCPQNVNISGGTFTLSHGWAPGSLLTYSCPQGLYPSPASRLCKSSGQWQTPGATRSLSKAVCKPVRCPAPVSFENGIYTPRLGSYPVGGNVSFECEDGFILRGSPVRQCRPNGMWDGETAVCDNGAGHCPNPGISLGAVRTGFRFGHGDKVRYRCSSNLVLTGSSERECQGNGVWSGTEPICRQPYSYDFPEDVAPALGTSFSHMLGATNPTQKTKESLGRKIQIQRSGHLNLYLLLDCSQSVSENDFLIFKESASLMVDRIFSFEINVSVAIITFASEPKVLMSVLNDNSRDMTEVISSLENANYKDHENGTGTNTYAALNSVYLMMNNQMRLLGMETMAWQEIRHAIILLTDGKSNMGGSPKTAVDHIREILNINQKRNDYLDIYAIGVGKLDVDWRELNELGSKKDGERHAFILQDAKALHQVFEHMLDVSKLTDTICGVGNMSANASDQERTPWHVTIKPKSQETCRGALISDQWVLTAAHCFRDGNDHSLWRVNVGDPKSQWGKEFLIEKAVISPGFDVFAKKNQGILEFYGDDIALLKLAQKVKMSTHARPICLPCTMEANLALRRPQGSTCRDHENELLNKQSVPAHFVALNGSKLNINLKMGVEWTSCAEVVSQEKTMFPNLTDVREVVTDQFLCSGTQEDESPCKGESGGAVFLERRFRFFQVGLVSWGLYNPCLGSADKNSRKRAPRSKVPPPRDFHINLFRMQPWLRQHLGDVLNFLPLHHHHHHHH

human C2 N471A = target: T2, human C2 N471A (human, UniProt P06681 21-752)
T2 sequence: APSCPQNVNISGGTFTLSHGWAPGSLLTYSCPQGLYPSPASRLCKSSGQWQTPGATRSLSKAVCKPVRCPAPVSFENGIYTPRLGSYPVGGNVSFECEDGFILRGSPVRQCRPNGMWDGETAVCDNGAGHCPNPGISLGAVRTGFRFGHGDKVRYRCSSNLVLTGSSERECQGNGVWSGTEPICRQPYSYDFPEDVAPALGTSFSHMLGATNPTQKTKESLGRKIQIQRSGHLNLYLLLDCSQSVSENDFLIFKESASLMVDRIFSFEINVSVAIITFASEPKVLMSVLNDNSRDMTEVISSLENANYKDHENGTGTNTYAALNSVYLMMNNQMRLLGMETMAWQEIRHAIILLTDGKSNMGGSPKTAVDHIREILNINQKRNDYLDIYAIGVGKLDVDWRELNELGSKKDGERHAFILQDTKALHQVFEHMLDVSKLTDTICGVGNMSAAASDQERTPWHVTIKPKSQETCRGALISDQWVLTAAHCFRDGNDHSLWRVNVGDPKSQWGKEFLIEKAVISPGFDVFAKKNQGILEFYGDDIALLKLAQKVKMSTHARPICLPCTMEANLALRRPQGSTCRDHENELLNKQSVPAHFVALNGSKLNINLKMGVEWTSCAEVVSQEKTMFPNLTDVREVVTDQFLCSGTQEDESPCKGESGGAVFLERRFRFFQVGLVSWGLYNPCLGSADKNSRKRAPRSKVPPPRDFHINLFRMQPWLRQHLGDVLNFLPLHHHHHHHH

human C2 A326S = target: T3, human C2 A326S (human, UniProt P06681 21-752)
T3 sequence: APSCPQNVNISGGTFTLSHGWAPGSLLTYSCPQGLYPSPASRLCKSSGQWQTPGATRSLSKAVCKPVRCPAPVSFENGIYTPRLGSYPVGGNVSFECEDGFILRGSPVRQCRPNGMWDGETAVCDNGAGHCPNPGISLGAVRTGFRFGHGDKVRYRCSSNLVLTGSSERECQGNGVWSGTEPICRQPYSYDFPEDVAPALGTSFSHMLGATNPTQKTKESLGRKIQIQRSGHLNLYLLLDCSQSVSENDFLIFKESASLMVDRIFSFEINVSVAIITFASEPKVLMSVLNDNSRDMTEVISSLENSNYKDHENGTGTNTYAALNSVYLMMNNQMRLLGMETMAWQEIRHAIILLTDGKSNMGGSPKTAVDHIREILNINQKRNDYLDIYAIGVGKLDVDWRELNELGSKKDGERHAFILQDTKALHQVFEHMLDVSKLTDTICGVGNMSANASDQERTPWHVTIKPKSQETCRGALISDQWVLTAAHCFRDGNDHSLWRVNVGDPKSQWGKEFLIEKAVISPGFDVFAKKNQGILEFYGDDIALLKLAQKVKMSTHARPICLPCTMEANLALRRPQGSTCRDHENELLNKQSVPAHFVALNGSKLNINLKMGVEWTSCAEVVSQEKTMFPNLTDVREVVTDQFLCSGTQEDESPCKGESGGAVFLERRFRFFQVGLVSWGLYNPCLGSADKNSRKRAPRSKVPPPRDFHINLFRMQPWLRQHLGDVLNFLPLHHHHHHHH

human C2 D282A = target: T4, human C2 D282A (human, UniProt P06681 21-752)
T4 sequence: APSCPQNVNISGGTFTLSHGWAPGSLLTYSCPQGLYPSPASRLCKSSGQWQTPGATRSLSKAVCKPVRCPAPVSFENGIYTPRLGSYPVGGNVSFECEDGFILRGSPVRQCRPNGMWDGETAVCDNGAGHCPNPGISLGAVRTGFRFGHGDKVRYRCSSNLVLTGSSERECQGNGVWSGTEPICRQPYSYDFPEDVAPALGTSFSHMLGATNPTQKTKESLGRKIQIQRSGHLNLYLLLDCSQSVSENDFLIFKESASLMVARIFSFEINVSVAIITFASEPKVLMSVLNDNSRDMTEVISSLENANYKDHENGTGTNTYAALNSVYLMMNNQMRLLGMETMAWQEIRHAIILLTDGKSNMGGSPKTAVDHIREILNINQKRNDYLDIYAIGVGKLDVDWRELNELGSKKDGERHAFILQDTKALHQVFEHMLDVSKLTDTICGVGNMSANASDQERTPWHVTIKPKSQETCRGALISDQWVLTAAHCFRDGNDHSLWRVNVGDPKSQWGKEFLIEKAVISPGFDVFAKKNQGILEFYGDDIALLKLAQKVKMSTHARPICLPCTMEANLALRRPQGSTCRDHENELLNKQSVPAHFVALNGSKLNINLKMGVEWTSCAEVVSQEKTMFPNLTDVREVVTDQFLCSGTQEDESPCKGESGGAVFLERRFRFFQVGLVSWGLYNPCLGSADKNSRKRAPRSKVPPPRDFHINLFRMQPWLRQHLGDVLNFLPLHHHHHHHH

B1: RF16-214 (antibody, V domains shown)
VH: EVQLLESGGGLVQPGGSLRLSCAASGFTFSWYQMMWVRQAPGKGLEWVSRIYPSGGGTAYADSVKGRFTISRDNSKNTLYLQMNSLRAEDTAVYYCARDAGYGDNWGQGTLVTVSS
VL: QSALTQPPSVSVSPGQTASITCSGDKLGEKYASWYQQKAGQSPVMVIYQDRKRPSGIPERFSGSNSGNTATLTISGTQAMDEADYYCQAWDTRAVVFGGGTKLTVLG
- Kd (human C2 T442A): 70.7 nM
- Kd (human C2 N471A): 32.8 nM
- Kd (human C2 A326S): 45.5 nM
- binding result (human C2 D282A): no binding
